Target: T1, EphA4 (Eph receptor A4) (human, UniProt P54764 20-986)
T1 construct: Endogenous EphA4 on the human pancreatic cancer cell line MIAPaca-2 (over-expressing); also called EpbA4
Assay: flow cytometry on EphA4 over-expressing MIAPaca-2 cells
Protocol: Cancer cells (5×10⁶) were incubated at 4° C. for 30 minutes with the purified polyclonal antibody (pAb), monoclonal antibodies (mAb), rabbit IgG (the control for pAb) or mouse IgG (the control for mAb). Cells were washed with phosphate buffer solution (PBS) and then incubated at 4° C. for 30 minutes in FITC-labeled Alexa Fluor 488. The cells were again washed in PBS, and analyzed on a flow cytometer (FACSCalibur®, Becton Dickinson) and then analyzed by BD CellQuest™ Pro software (Becton Dickinson). Mean fluorescence intensity (MFI) was defined as a ratio of the flow cytometric intensity (intensity by each protein specific antibody/intensity by rabbit IgG).
Using EphA4 over-expressing cells, the binding ratios of anti-EphA4 antibodies on the cell surface were investigated.

T1 sequence (P54764 20-986): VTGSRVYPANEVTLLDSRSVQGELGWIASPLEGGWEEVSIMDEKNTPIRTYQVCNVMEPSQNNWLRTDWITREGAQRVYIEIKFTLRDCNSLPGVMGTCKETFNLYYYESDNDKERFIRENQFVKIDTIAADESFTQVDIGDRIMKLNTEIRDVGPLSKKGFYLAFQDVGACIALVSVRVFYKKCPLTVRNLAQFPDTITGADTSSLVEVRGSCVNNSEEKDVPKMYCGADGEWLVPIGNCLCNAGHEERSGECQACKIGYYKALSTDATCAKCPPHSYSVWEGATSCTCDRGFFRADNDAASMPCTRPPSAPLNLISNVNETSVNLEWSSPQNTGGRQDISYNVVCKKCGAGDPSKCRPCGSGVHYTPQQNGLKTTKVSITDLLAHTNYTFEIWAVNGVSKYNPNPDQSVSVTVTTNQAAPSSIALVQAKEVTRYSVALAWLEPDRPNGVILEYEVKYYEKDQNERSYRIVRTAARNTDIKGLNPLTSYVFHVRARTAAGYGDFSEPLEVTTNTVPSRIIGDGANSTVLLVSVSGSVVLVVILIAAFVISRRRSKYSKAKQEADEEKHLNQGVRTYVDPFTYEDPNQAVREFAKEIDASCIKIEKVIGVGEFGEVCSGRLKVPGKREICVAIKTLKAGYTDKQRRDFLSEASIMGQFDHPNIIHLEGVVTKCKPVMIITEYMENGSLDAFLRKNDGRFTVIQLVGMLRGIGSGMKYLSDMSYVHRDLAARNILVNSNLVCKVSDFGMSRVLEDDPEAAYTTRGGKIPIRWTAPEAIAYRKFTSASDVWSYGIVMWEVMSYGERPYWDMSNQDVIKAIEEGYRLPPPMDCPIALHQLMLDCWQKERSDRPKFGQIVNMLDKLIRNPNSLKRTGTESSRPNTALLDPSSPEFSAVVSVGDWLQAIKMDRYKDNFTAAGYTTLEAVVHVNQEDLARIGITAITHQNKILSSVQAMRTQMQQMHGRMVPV

Row | MFI | Binder
1 | 12.6 ratio (intensity by specific antibody / intensity by control IgG) | anti-EphA4 human antibody 65 (antibody, V domains shown, also called clone 65) VH: QVQLVQSGAEVKKPGASVKVSCKVSGYTLTELSMHWVRQAPGKGLEWMGGFDPEDGETIYAQKFQGRVTMTEDTSTDTAYMELSSLRSEDTAVYYCATAQPFHWGDDAFDIWGQGTMVTVSS VL: not shown
2 | 15.5 ratio (intensity by specific antibody / intensity by control IgG) | anti-EphA4 human antibody 336 (antibody, V domains shown) VH: QVQLQQSGPGLVKPSQTLSLTCAISGDSVSSNSAAWNWIRQSPSRGLEWLGRTYYRSKWYNDYAVSVKSRITINPDTSKNQFSLQLNSVTPEDTAVYYCARDSLRSFDYWGQGTLVTVSS VL: QSVLTQPPSVSAAPGQKVTISCSGSSSNIGNNYVSWYQQLPGTAPKLLIYDNNKRPSGIPDRFSGSKSGTSATLGITGLQTGDEADYYCGTWDSSLSAVVFGGGTKLTVLG

Reference: US20090191211A1 (ONCOTHERAPY SCIENCE, published 2009)
